{"source": "patent US20160200782A1", "about": "(MOERAE MATRIX, published 2016); further: test concentration or dose not given here", "experiment_in_all_cases": "cell-based or functional assay", "key": {"PDGFRβ(h)": {"target": "PDGFRβ(h) (human, UniProt P09619 557-1106, limits assumed)", "sequence (P09619 557-1106 limits assumed)": "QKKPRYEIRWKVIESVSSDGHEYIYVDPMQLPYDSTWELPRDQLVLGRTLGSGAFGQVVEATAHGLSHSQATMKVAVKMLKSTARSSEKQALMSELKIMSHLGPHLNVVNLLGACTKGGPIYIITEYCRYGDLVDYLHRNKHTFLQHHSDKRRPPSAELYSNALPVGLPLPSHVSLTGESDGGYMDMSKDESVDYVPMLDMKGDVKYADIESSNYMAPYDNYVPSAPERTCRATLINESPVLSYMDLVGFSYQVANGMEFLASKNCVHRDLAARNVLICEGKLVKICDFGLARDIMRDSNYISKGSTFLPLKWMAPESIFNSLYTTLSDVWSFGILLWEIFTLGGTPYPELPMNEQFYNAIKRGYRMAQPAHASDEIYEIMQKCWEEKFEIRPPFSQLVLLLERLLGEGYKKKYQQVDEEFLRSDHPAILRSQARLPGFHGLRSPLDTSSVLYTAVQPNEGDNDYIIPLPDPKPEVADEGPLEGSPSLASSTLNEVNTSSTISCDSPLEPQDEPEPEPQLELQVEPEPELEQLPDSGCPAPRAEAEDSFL"}, "DCAMKL2(h)": {"target": "T1, DCAMKL2(h) (human, UniProt Q8N568 372-766, limits assumed)", "T1 sequence (looked up)": "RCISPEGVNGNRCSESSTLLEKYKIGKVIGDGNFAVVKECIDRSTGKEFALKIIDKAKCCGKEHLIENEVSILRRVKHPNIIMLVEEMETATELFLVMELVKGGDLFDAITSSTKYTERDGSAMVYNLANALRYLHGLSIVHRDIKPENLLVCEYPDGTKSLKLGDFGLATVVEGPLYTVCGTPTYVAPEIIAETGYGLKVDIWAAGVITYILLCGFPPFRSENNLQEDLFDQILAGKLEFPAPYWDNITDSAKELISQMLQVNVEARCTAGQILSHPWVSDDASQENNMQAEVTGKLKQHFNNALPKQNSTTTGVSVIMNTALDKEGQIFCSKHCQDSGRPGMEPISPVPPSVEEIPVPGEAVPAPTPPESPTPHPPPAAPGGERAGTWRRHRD"}, "CaMKIIγ(h)": {"target": "CaMKIIγ(h) (human, UniProt Q13555 1-558, limits assumed)", "sequence (Q13555 whole entry)": "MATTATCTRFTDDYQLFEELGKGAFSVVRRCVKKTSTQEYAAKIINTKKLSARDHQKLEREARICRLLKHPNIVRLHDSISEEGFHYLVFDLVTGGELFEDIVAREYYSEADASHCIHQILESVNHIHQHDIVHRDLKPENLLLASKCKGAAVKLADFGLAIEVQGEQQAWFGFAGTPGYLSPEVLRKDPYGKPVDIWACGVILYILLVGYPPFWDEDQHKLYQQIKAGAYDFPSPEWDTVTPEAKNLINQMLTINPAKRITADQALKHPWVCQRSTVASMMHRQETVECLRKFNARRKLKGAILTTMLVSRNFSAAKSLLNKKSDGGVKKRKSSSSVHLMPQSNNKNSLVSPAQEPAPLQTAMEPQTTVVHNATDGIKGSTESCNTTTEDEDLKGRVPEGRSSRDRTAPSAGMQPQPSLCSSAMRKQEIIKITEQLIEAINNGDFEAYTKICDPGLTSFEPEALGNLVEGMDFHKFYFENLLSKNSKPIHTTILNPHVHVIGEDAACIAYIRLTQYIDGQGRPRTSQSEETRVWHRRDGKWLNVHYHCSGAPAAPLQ"}, "PDGFRα(V561D)(h)": {"target": "PDGFRα(V561D)(h) (human, UniProt P16234 550-1089, limits assumed)", "sequence (P16234 550-1089 V561D limits assumed)": "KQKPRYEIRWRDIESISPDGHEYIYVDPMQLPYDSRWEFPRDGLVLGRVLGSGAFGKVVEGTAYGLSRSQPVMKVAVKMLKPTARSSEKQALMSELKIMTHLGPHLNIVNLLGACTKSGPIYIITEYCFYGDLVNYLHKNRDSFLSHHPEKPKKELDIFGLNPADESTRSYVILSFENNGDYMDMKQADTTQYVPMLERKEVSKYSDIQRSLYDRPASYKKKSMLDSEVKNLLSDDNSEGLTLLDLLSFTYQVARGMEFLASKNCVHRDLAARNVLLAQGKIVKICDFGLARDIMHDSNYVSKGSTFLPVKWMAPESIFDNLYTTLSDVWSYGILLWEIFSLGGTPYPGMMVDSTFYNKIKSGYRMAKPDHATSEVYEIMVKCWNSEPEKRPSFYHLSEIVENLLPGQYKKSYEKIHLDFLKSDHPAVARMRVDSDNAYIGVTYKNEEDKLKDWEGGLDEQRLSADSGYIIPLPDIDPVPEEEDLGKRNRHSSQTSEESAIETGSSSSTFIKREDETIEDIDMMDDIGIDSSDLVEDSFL"}, "EphB1(h)": {"target": "T2, EphB1(h) (human, UniProt P54762 564-984, limits assumed)", "T2 sequence (looked up)": "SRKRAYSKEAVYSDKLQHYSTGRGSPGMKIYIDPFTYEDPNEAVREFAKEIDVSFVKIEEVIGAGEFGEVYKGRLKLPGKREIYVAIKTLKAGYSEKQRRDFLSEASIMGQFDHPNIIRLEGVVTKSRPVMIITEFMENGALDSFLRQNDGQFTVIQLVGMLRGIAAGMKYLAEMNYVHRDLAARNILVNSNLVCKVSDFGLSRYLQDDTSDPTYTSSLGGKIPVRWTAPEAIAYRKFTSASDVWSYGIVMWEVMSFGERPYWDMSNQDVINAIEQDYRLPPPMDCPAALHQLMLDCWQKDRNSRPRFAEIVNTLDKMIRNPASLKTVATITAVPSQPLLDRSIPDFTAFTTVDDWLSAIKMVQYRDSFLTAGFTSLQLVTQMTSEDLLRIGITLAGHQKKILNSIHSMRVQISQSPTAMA"}, "PKG1β(h)": {"target": "T3, PKG1β(h) (human, UniProt Q13976-2 1-686)", "T3 sequence (looked up)": "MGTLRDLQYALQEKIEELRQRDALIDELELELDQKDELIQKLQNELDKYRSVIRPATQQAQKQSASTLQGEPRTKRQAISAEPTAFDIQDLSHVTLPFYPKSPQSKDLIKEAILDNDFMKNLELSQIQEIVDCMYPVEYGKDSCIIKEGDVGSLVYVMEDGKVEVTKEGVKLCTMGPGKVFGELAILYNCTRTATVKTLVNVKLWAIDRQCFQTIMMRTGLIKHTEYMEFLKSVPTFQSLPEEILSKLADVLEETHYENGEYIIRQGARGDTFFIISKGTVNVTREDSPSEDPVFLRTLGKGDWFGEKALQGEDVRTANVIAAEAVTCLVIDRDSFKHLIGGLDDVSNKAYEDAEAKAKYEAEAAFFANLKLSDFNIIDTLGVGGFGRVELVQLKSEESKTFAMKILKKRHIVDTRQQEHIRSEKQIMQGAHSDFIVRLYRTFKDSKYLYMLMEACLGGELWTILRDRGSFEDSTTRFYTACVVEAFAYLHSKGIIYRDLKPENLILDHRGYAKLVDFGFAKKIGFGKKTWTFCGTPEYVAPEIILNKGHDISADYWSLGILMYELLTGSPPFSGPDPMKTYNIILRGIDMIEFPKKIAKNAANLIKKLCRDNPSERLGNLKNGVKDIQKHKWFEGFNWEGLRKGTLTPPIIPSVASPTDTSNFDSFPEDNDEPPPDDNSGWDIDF"}, "ULK3(h)": {"target": "T4, ULK3(h) (human, UniProt Q6PHR2 1-472, limits assumed)", "T4 sequence (looked up)": "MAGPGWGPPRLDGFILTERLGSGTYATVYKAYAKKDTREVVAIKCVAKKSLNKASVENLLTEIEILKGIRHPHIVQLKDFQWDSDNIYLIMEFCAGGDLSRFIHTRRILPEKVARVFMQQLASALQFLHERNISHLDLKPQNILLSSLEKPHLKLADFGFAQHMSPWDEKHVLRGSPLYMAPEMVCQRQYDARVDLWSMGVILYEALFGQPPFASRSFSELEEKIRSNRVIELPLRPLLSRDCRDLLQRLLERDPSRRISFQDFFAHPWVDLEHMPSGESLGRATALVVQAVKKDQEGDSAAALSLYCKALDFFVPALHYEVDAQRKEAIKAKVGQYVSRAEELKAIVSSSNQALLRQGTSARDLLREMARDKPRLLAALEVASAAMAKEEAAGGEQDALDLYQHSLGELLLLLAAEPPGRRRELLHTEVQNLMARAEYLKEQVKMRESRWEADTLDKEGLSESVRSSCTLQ"}, "TrkA(h)": {"target": "TrkA(h) (human, UniProt P04629 441-796, limits assumed)", "sequence (P04629 441-796 limits assumed)": "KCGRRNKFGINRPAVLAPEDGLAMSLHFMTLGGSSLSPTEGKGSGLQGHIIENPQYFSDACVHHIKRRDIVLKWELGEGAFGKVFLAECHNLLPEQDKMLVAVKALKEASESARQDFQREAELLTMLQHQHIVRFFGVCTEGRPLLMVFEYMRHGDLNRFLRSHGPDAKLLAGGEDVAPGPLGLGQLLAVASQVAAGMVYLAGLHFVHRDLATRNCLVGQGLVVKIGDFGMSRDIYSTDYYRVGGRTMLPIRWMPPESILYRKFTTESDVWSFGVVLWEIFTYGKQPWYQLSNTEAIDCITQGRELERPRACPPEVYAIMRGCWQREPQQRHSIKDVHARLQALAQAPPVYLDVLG"}}, "data": [{"binder": "KAFAKLAARLYRKALARQLGVAA", "note": "[MMI-0400]", "values": [{"measurement": "% activity", "setting": "PDGFRβ(h)", "value": 53, "unit": "%"}, {"measurement": "% activity", "setting": "DCAMKL2(h)", "value": 70, "unit": "%"}, {"measurement": "% activity", "setting": "CaMKIIγ(h)", "value": 3, "unit": "%"}, {"measurement": "% activity", "setting": "PDGFRα(V561D)(h)", "value": 100, "unit": "%"}, {"measurement": "% activity", "setting": "EphB1(h)", "value": 58, "unit": "%"}, {"measurement": "% activity", "setting": "PKG1β(h)", "value": 53, "unit": "%"}, {"measurement": "% activity", "setting": "ULK3(h)", "value": 147, "unit": "%"}, {"measurement": "% activity", "setting": "TrkA(h)", "value": 17, "unit": "%"}]}, {"binder": "FAKLAARLYRKALARQLGVAA", "note": "[MMI-0300]", "values": [{"measurement": "% activity", "setting": "PDGFRβ(h)", "value": 81, "unit": "%"}, {"measurement": "% activity", "setting": "DCAMKL2(h)", "value": 81, "unit": "%"}, {"measurement": "% activity", "setting": "CaMKIIγ(h)", "value": 5, "unit": "%"}, {"measurement": "% activity", "setting": "PDGFRα(V561D)(h)", "value": 82, "unit": "%"}, {"measurement": "% activity", "setting": "EphB1(h)", "value": 44, "unit": "%"}, {"measurement": "% activity", "setting": "PKG1β(h)", "value": 50, "unit": "%"}, {"measurement": "% activity", "setting": "ULK3(h)", "value": 167, "unit": "%"}, {"measurement": "% activity", "setting": "TrkA(h)", "value": 25, "unit": "%"}]}]}
